Test: yeast display, Sf9 membrane polyspecificity reagent, FACS + sequencing; frameworks hold sequencing errors
In short: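 Sorting gates, low and high (top ~1%), were placed on anti-HA fluorescence to track expression and on streptavidin fluorescence to track reagent binding. A clone's polyreactivity label is taken from the gate it came out of. The reagent was 10% biotinylated, detergent-solubilized Sf9 membrane, applied for 1 hour at 4 °C to galactose-induced yeast display cells.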

| Sequence | polyreactivity (PSR sort gate) |
| --- | --- |
| QVQLVESGGGLVQAGGSLRLSCAASGGIVSVYAMGWYRQAPGQERELVASITVSGGSTSYADSVKGRFTISRDNAKNTVYLQMNSLIPEDTAVYYCNTDFGQAHTLSWYEDMDYWGQGTQVTVSS | low polyreactivity |
| QVQLVESGGGLVQAGGSLRLSCAASGSTFKIYAMGWYRQAPGKERELVARITGRGGSTYYADSVKGRFTISRDNAKNTVYLQMNSLKPEDTAVYYCAREWYQYSPYHRFDYWGQGTQVTVSS | high polyreactivity |
| QVQLQESGGGLVQAGGSPRLSCAASDNIFPDSVRCWYRQAPGKERELVATIGFGATTNYADSVKGRFTISRDNAKNTVYLQMNSLKPEDTAVYYCAADPLNYEYFCYWGQGTQVTVSS | low polyreactivity |
| QVQLVESGGGLVHAGGSLRLSCAAYGRTYGTNAMGWYRQAPVKERELVAAIRRGGSRTYYADSVKGRFTISRDYAKNTVYLPMNSLKPEDTAVYYCAAKLRAYVDPFEYWGQGTQVTVSS | low polyreactivity |
| QVQLADSGGGLVQAGGSLRLICAASGTFGSNAMGWYIQAPGKERELVAAINSGGTTKYADSVKGRFTISRDNAKNTVYLQMNRLKPEDSALYYCNAREGVFSYTVAHDYWGQGTQVTVSS | low polyreactivity |
| QVQLVESGGGLVQEGGSLRLSCAACGFTFTTNAMGWYRQAPGKERELVAGITFIGGSTYYADSVKGRFTISRDNAKNTVYLQMNNLKPEDTAVYYCAAEWVLVYLQYTYEDYDYWGQGTQVTVSS | low polyreactivity |
| QVQLVESGGGLVQAGGSLRLSCAASGITFSSYAMGWYRQAPGKERELVAGITRRGGITYYADSVKGRFTISRDNAKNTVYLQMNSLNPEDTAVYYCAATHRFRSGSPDGGYGYWGQGTQVTVSS | high polyreactivity |
| QVQLVESGGGLVQAGGSLRLSCAASGLTLYFYVMGWYRQAPGKERELVAAISSTGSTYYADSVKGRFSISRDNAKNTVYLQMNSLKPEDTAVYYCAARKRGWYGYWGQGTQVTVSS | high polyreactivity |
| QVQLVESGGGLVQAGGSLRLSCAASGIIFDTYAMGWYIQAPGKERELVAAISRSGDTTYYADSVKGRFTISRDNAKNTVYLQMNSLKPEDTAVYYCNARQSRWDKYDYWGQGTQVTVSS | high polyreactivity |
| QVQLVESGGGLVQAGGSLRLSCAASGFTIYGNAMGWSRQAPGKERELVAAITWRGGSTYYADSVKGRFTISRDNAKNTVYLQMNSLKPEDTAVYYCAARWLLGYYRYDYWGQGTQVTVSS | high polyreactivity |
| QVQLVESGGGLVQAGGSLRLSCAASGSTFRRYAMGWSRQAPGKVRELVAAISRTGRTNYADSVKGRFTISRDNAKYTVYLQMNSLKPEDTAFDYCAAKSSTKQRKYYWGQGTQVTVSS | high polyreactivity |
| QVQLVESGGGLVQAGGSLRLSCAASGFIFRKYGMGWYRQAPGKERELVAAIRFTGGSTRYADSVKGRFTISRDNAKNTVYLQMNSLKPEDTAVYYCNADRVYVRGRFTYDYWGQGTQVTVSS | low polyreactivity |
| QVQLVESGGRLVQAGGSLRLSCAASGFIFRSYAMGWYRQAPGKERELVAAISSRGGSTSYADSVKGRFTISRDNAKNTVYLQLNSLKPEDTAVYYCNAYQYPGYGNNYWGQGSQVTVSS | high polyreactivity |
| QVQLVESGGGLVQAGGSLRLSCAASGLIFPVYDMAWYRQAPGKERELVAAITRSGDSTYYADSVKGRFTISRDNAKNTVYLQMNSLKPEDSGVYYCAAQPGTASYAGDGDSWGKGTQVTVSS | low polyreactivity |
| QVQLVESGGGLVQAGGSLRLSCAASGSTFRANVMGWYRQAPGKEMELVAAITSGGGSTYYADSVKGRFTISRDNAKNTVYLQMNSLKPEDTAVYYCATRPIQYRRGYDYWGQGTQVTVSS | high polyreactivity |
| QVQLVESGGGLVQAGGSLRLSCAASGRIFGPYTMGWYRPAPGKEREFVAAISRSGDSTYYADSVKGRFTISRDNAKNTVYLHMNSLKPADTAVYYCAAKYGTRLTAYYYWGQGTQVTVSS | high polyreactivity |
| QVQLVESGGGLVQAGGSLRLSCAASGSTFRYYAMGWYRQAPGKERELVAAISWSGGSTYYADSVKGRFTISRDNAKNTVYLQMNSLKPEDTAVYYCNKAWFPYYYYRFDYWGQGTQVTVSS | high polyreactivity |
